Source: patent US20030083294, “Modulators of pharmacological agents” (published 2003)

Biological target: coagulation factor IXa (FIXa) (Homo sapiens, UniProt P00740;P00740 P00740:47-191,P00740:227-461)
Experiment: KD comparable to 9.3t

B1: 9.20t (ssRNA)
RNA: AUGGGGACUAUACCGGCAAUCGUGCAUCCCCAU
modifications: 2'-F pyrimidines, 2'-OH purines
B1: binds.
